T1: JAVL (JAVL_A) (UniProt A0A1U8LLK1 1-170)
T1 sequence: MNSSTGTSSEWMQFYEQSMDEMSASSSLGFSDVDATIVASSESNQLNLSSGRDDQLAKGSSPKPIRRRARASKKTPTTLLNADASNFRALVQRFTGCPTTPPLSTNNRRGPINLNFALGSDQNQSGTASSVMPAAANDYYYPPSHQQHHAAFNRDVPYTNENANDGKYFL


Target: T1, JAVL (JAVL_A)
Test: EMSA; EMSA: 30 °C for 30 min, then 5% native PAGE in Tris/borate/EDTA, 10 V/cm, 4 °C; 10x and 100x cold competitor; binding buffer, salt and pH not stated
Settings: protein: recombinant; tags: His (pET32a); label: Cy5; blunt (duplex implied, only one strand printed)

Binder | binding result
GoPGF promoter G-box probe (dsDNA) DNA 1: AACAGGAGATTTCCACGTGATAATGATGTCAA DNA 2: TTGACATCATTATCACGTGGAAATCTCCTGTT | binds
AOS promoter G-box probe (dsDNA) DNA 1: TTATGGCTGTAAAAACGTGCGAATTCATGGAG DNA 2: CTCCATGAATTCGCACGTTTTTACAGCCATAA | binds
